Reference: PMC9303359

Target: human Toll-like receptor 2 expressed on HEK-Blue hTLR2 cells (human) (UniProt O60603)
Assay: flow cytometry on cells

Chain of UniProt O60603 (O60603 21-784): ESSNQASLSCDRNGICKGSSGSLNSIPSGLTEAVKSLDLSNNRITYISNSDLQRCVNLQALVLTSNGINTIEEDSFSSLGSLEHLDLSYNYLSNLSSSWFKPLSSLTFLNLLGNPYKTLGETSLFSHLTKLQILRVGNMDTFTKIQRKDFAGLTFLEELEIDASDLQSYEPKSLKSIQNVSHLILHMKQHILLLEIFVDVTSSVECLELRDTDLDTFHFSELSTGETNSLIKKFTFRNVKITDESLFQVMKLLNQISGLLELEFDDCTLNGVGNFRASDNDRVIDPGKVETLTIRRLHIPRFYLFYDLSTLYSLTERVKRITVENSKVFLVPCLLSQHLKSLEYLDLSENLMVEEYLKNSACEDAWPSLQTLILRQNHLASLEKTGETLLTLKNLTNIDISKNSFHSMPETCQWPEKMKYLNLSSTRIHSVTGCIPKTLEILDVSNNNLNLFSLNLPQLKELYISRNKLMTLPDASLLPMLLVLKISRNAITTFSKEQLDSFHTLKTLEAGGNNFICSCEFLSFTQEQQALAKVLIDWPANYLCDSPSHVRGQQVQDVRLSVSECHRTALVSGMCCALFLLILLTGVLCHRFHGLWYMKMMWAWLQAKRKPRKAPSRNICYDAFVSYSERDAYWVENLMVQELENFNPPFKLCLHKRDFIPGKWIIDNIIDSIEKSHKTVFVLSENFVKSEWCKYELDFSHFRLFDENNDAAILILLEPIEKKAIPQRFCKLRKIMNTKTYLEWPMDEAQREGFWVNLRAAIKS

## fluorescently labelled recombinant ancillary pilin 1 (rAP1 labelled with Red Mega 485) (natural protein)
  mean fluorescence intensity: 1490
